Assay results reported in the supplement of paper PMC9942255.
Several values for one entry are separate records, joined by “and”; a condition that tells them apart may be missing. Equal values may be shown once.

Tested on: Bacillus subtilis DB104 (SP-AmyQ fusion secretion)
Experiment: AmyQ secretion efficiency, weighted average sort bin (1 = best secretion, 10 = worst) (bin number (weighted average, 1-10)); higher = lower secretion efficiency
Outline: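 In this assay, the secretion score is defined as the average bin number weighted by read frequency, normalised to beads per bin, with low-abundance sequences not counted. B. subtilis DB104 cells expressing mature AmyQ behind designed signal peptides (amyE-integrated) were enclosed with fluorescein-starch in ~65 nL alginate beads at about 0.3 cells per bead. Beads grew about 13 h at room temperature, were stained with nile red, and occupied beads went into 10 equally populated green/red fluorescence ratio bins by large-particle flow cytometry, whose amplicons were Illumina-sequenced.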

Sequence | AmyQ secretion efficiency
MKSKGSIMACLILFSFTITTFINTETISDFSN | 6.98
MGMKKKSRTGVASAALGLALVGGGTWAAFN | 5.34
MLKKIALTLCPAIVGSLLFFTAPHSAHVS | 5.59
MRKYTVIASILLSFLSVLSGGHHESKAFPV | 3.25 and 4.96
MKKTSGTKYKCQSLILSVLAAPPSGAKAESV | 7.18
MTMLRKIIGWILLLCIIDDEAFTVIASGKEV | 5.2
MRNLTKTSLLLAGLCTAAQMVFVTHMSAEES | 3.28
MKKWMITIAMLILAGIALFVFIRKKRRLKSHKT | 6.07
MLKRTSFVSSLFISSAVLLSILLPSGQAHAQKR | 2.41
MKMKSGMEQAVSVLLLLSRLPVQASLRRK | 7.08
MKKWMITIAMLILAGIALFVFIFSPLKSHKT | 7.63
MRKKRVITCVMAASLTLGSLLTAVTASAKED | 3.16
MKSLPYTIALLFCGLIIVSMAAKGHED | 7.33
MKNMSCKLVVSVTLFFSFLTIGPLAHAKRK | 2.49
MKLSVKIAGVLTVAAAAMTAKMYYTAKGN | 6.5
MKKKQVSHAIIISVMLSFVIAVFHTIHASERKR | 7.08
MRKTIFAFLTGLMMFEDDEEDASASPD | 5.45
MKTLRTLCVLMILSGVIFFGLKDIDAKDI | 6.44
MKKKLKKGLTASAIVGTTLVVTPAEAATI | 5.93
MKKSRRALLLLLFAFEPSASGKKL | 7.28
MPYLKRVLLLLVTGLFMSLFAVTATASNQTG | 1.29
MKKRRYFIVFICFFVLFSVHPIAAAAADS | 3.35
MFNRLFRVCFLAALIMAFTLPNSLYAQKP | 2.72
MNMLKRLSMLTVMIASVFIFSSHALAAQY | 1.63
MLCVMMLLFMAIASFPVSAQAKDQ | 5.48
MKKRLIAPMLLSAASLAFFAMSGSNQAAAY | 3.88

Sequence | AmyQ secretion efficiency
MRNLTKTKRRKAGLCTAAQMVFVTHASAEES | 6.94
MKRLLVSLRVWMVFLMNWVTPDRKTAAARRK | 7.14
MAIIIAIIAAVIVIAALITFNVRNISPG | 7.65
MKLAKRGKSYYPYTSLAITAKAKEL | 8.51
MRKKLKWLSFLLGFIILLFLFKYQRSNNDS | 7.7
MRKNRILALFVLSLGLLFSFMVTPVSAASK | 1.99
MKSKGSIMACLILFSFTITTFINTETKSAFSN | 6.7
MLKKIALTLCPAIVGSLLFFTAPASAHVE | 2.48
MTKKAWFLPLVCVLLIDEDLAPAASASAQTT | 2.58
MRKTIFAFLTGLMMFGTITALSASPD | 5.45
MRSYIKVLTMCFLGLILFVRRKALADNS | 6.5
MKKWLIIAVSLAIAIVLFMYTAGEAKAAGM | 2.74
MSKWMAGLFLAAAVLLCLMVPQQIQGASS | 4.5
MRSKKLWISLLFALTLIFTMAFSNMSPQAAGK | 4.28
MFKKHTISLLIIFLLASAVLAKPAEAHTV | 2.44
MKVPKTMLLSTAAGLLLSLTATSVSIHYV | 5.12
MKNMSCKLRRRRKRFFSFLTIGPLAHAQNS | 7.37
MTGLKMLSMLTVMIASLFIFSSQALAVQY | 1.83
MKNMSCKLVVSVTLFFSFLTIGPLNHAQNS | 5.54
MKVCQKSIVRFLVSLIIGTFVISVPFMANAEED | 3.09
MFFTIVAGLAVSAVVGSSMAAAPAEAKTI | 2.75
MAIIIAIIAAVIVIAALITFNVRNGSPG | 7.66
MHLIRAAGAVCLAVVLIAGCRFNEDQHQAESENT | 3.48
MRMLWRSLALCGLALTLAFLSVSLFFVPCAQAAEP | 1.41
MPIKKKVMMCLAVTLVFGSMSFPTLTNSGNFKE | 5.35
MKSKWMSGLLLVAVGFSFTQVMVHARRR | 7.53

Sequence | AmyQ secretion efficiency
MKKKLAAGLTASAIVGTTLVVTPAESATI | 3.72
MKVKRRKRKLLLFAFEPSASGKKL | 6.97
MRKTIFAFLTGLMMFGTITAQSASPD | 5.11
MRGKSSTRKSLIMLIAGFLISFSFQM | 7.08
MFNRLFRVCFLAALIMAFTLPNSVYDQKP | 6.94
MNKFLKSNRFLLAAALGISLLASSNFIKASND | 4.66
MAAQTDYKKQVVGILLSLAFVLRRRKFSERHE | 7.65
MKLKKRVSMFLVALTMCGGLFVTPSFPPTAPAKAVKT | 5.25
MKKRKRRNFKRFIAAFLVLALMIDVLAKST | 7.65
MKKIWIGMLAAAVLLLMVPKVSPAVPSGFSLADAA | 6.35
MNKPTKLFSTLALAAGMTKRRAGGAGTIHAQQP | 5.85
MKKKLAAGLTASAIVGTTLVVTPAEGATI | 3.33
MKLWMRKTLVVLFTIVTFGLVSPPAALMGDKP | 4.12
MKLAKRINMVSALTPSTTLAITAKAKEL | 7.42
MKKSQYTTLFIVFICFFVLFSVHPIAAAAADS | 2.98
MKVPKTMNFSFTLLSTAAGLLLSLTATSVSAHYV | 5.47
MKKWIYGGQTGKIAGIGGFSVHAASS | 6.97
MKRLKKTLLIGIMLLTFAPSAFAKQD | 1.92
MKKRLIAPMLLSAASLAFFATFMSGSAQAAAY | 3.39
MLKFLKSNFRFLLAAALGISLLASSNFIKASND | 3.52
MKKRKVLLSALLLLLFAFEPSASGKKL | 2.85
MRKYTVKRSILLSFLSVLSGGHHESKAFPV | 6.95
MKKAAAVLLSLGLVFVGFSYGAGHVAEAKTK | 1.71
MAIIIAIIAAVIVIAALITFNVINASPG | 9.99
MHLIRAAGAVCLAVVLIAGCREAEGENT | 4.69
MKKIVSILFMFGLVMGFSQFQPSTVFARRK | 5.68

Sequence | AmyQ secretion efficiency
MFNRLFRVCFLAALIMAFTVYAQKP | 6.93
MKKSTRKYKILGALGTSYISADSS | 7.69
MSGGGILALFVLSLGLLSFMVTPVSAASK | 2.53
MKWMCSICCAAVLLAGIAIAQAEAV | 6.86
MRKYTVIASILLSFLSVLSGGHHESKAFPR | 4.58
MRHKIITFILAVVVIIIIGNMIGGGGGSEATSK | 5.87
MRKRQGSGYGGLMMFGTITAASASPD | 7.27
MKKLLAAGIIGLLTVSIASPSFSAEK | 3.02
MKKLVLCVSILAVILSGVMLTQLS | 6.44
MKNMSCKLVVSVTLFFSFLTIGPLVHAQNS | 1.05
MLCVMMLLFSAIASFPVSKQAKDQ | 7.19
MRSKKLWISLLFALTLIFTMAFSNMSAQHAGK | 6.69
MSFFTKNRLISSVLSTVVISSLLFPGAAGASSK | 1.61
MKKGIIRFLLVSFVLFFALSTGITGVQRAPA | 4.88
MSSCGGILIVCSLAAILLLIPSVSFAADS | 4.26
MTGSLLSSLAISALSLGLLVSAPTASFAAES | 5.96
MTLALRVSALTPSTTLAITAKAKEL | 7.08
MFNRLFRVCKKKRKRMAFTLPNSVYAQKP | 7.15
MRKYTFVIASILLSFLSVLSGGHHESKAFPV | 5.44
MRFTKVVGFLSVLGLAAKKKLTAQAEKA | 7.51
MKKSQYFIVFICFFVLFSVHPIALAAADS | 3.9
MRKKCSVCRRKKVLLLSCLSGKSAYAATS | 7.48
MKRYYVRMTLPLLIVCLAFSSFSASARAASE | 2.74
MIAYFGKCLLLVTIMFLGVLFGMQQGNHG | 5.32
MKRQKQKASLVLFAVVFVFAVKGAPAKAETH | 2.05
MSVMTTMLLSTAAGLLLSLTATSVSAHYV | 4.5

Sequence | AmyQ secretion efficiency
MFNRLFRVCFLAALIMAFTLPNSVYCQKP | 4.33
MFKKHTKRKRRKFLLASAVLAKPIEAHTV | 7.89
MLKKIALTLCPAIVGSLLAPASAHVS | 4.32
MKVLLSALLLLLFARKKKKRASGKKL | 6.15
MKSLPYTIALLFCGLIIVSMAAKGHKK | 6.13
MKKGIIRFLLVSFVLFFALDEDITGVQAAPA | 3.78
MGRIKTKITILLVLLLLLAGPYMYIN | 7.19
MRFTKTVGFLSVLGLAAVFPLTAQAEKA | 2.59
MKNGGCKLVVSVTLFFSFLTIGPLAHAQNS | 3.26
MGLGKKGTYRVAASFMSLSISLPGVQAAEG | 4.07
MFMKSGMEQAVSVLLLLSRLPVQASLTSE | 9.96
MKNMSCKLVVSVTLFFSFLTIGPLAHTQNS | 4.17
MNKPTKLRRKKKRAAGMTAAAAGGAGTIHAQQP | 7.88
MNKPTKLFSTLALAAGMTAAAAGGAGTCHAQQP | 1.79
MRMLWRSLALCGLALTLAPCAQAAKK | 2.93
MKKTIMSFVAVAALSTTAFGAHTSAKEI | 2.69
MKKAFILSAAAAVGLFTFGGVQQASAADD | 3.55
MKRFLIGAGVAAVILSGWFIADHQFHSQEM | 5.93
MRKTRRKKKRGLMMFGTITAASASPD | 5.82
MLCVMMLLFSAIAPDPSGAQAKDQ | 4.72
MFNRLFRVCFLAALIMAFTLPNSVYAQTP | 2.03
MKLKKRFLVALTMCGGLFVTPAKAVKT | 7.15
MKKRKRRNFKRFIAAFLVLALMISLVPADTLAKST | 1.68
MFKKHTISLLIIFLLASAVLAKPIEEHTV | 5.81
